Measurements reported in article PMC7697860.
Several values for one entry are separate records, joined by “and”; a condition that tells them apart may be missing. Equal entries are not always repeated.

Experiments:
[1] = biological target: PfPV1 with Strep-tag at the C-terminus (PfPV1-Strep) (Plasmodium falciparum 3D7); experiment: […] (pH 6.8), 200 mM NaCl, 0.5 mL/min
[2] = biological target: PfPV1 with Strep-tag at the C-terminus (PfPV1-Strep) (Plasmodium falciparum 3D7); experiment: native gel or EMSA
[3] = biological target: PfPV1 with Strep-tag at the C-terminus (PfPV1-Strep) (Plasmodium falciparum 3D7); experiment: negative-stain electron microscopy with 2D classification
[4] = biological target: PfPV1 with Strep-tag at the C-terminus (PfPV1-Strep) (Plasmodium falciparum 3D7); experiment: AUC

“PfPV1 with Strep-tag at the C-terminus (PfPV1-Strep) (natural protein)” was tested, and the stoichiometry N [1] was 4 and 3, the stoichiometry N [2] was 3 and the stoichiometry N [3] was 4. The stoichiometry N [4] was 4 and 3 and 2, the weight fraction w of the component assigned to the tetramer (A4, 222 kDa) [4] was 24% and the weight fraction w of the component assigned to the tetramer (B3, 215 kDa) [4] was 17.5%. For the same substance, the weight fraction w of the component assigned to the trimer (A3, 139 kDa) [4] was 6.8% and the weight fraction w of the component assigned to the trimer (B2, 141 kDa) [4] was 48.1%.
